Assays:
[1] = target: GST-MDM2-350–C-S429D (human) (UniProt Q00987); assay: SPR; GST-tagged MDM2 variants captured on a CM-5 chip with coupled anti-GST antibody; serial dilution of UbcH5B–Ub as analyte; 25 °C; 25 mM Tris-HCl pH 7.6, 150 mM NaCl, 0.1 mg/ml BSA, 1 mM DTT, 0.005% Tween-20; Biacore T200; GST alone subtracted
[2] = target: GST-MDM2-419–C (human) (UniProt Q00987); assay: as above
[3] = target: GST-MDM2-350–C-S425D (human) (UniProt Q00987); assay: as above
[4] = target: GST-MDM2-419–C/His-MDMX-418–C heterodimer (UniProt Q00987); assay: as above
[5] = target: GST-MDM2-419–C-S429D (human) (UniProt Q00987); assay: as above
[6] = target: GST-MDM2-350–C-S386D (human) (UniProt Q00987); assay: as above
[7] = target: GST-MDM2-350–C-S407D (human) (UniProt Q00987); assay: as above
[8] = target: GST-cat MDM2-422–C (Felis catus (cat)) (UniProt Q7YRZ8); assay: as above
[9] = target: GST-MDM2-350–C-6D/His-MDMX-428–C heterodimer (UniProt Q00987); assay: as above
[10] = target: GST-MDM2-350–C-S395D (human) (UniProt Q00987); assay: as above
[11] = target: GST-MDM2-419–C-S429E/His-MDMX-418–C heterodimer (UniProt Q00987); assay: as above
[12] = target: GST-MDM2-350–C-6D (human) (UniProt Q00987); assay: as above
[13] = target: GST-cat MDM2-422–C-S429E (Felis catus (cat)) (UniProt Q7YRZ8); assay: as above
[14] = target: GST-MDM2-350–C-T419D (human) (UniProt Q00987); assay: as above
[15] = target: GST-MDM2-419–C-pS429 (human) (UniProt Q00987); assay: as above
[16] = target: GST-MDM2-350–C/His-MDMX-428–C heterodimer (UniProt Q00987); assay: as above
[17] = target: GST-MDM2-419–C-S429E (human) (UniProt Q00987); assay: as above
[18] = target: GST-MDM2-419–C-S429E (human) (UniProt Q00987)

- Kd [1]: 7.8 µM
- Kd [2]: 14 µM
- Kd [3]: 13.4 µM
- Kd [4]: 23.4 µM
- Kd [5]: 7.1 µM
- Kd [6]: 13.7 µM
- Kd [7]: 13.7 µM
- Kd [8]: 16.8 µM
- Kd [9]: 29.2 µM
- Kd [10]: 13.7 µM
- Kd [11]: 17.8 µM
- Kd [12]: 6.7 µM
- Kd [13]: 6.8 µM
- Kd [14]: 13 µM
- Kd [15]: 5.1 µM
- Kd [16]: 36.7 µM
- Kd [17]: 6.4 µM
- rate of autoubiquitination of the MDM2 homodimer over time, S429E against WT [18]: 1.6 fold
Substance: UbcH5B S22R, C85K–Ub (stably conjugated E2–ubiquitin) (from UniProt P62837 1-147; P0CG47 1-76) (complex)
